Test results taken from publication PMC13577073, “Cryo-EM structure of the glycosylated protein CgeA in the crust of Bacillus subtilis endospores” (The Journal of Microbiology, 2025).

Key:
[1] = biological target: the molecule itself; assay: SEC-MALS; Superdex 200 Increase 10/300 GL; 20 mM Tris-HCl (pH 8.0), 150 mM NaCl; DAWN HELIOS II
[2] = biological target: the molecule itself; assay: SEC; wild type and A42C/D97C mutant compared; Superdex 200 column calibrated with reference proteins

B1: CgeA protein from Bacillus subtilis, wild type (natural protein, B. subtilis, UniProt P42089 1-133, looked up)
chain: MSSENAQLKKDLIKAVLSPLFPTATEGGENMDSNLKALLDAAIDQKVDESETVTAESILDPSLPARWIFARITPGTTISIVTDSGDMIGPVVFVAFDQVHGIVFVTQESSVTPAGQATTLIDVDKVESVTFFS
notes: CgeA, spore crust protein of B. subtilis; synthesized cgeA gene subcloned into NcoI/XhoI of pProEx-Hta; also called CgeA (WT); wild-type CgeA; source: E. coli BL21 (DE3), purified (Ni-NTA, TEV cleavage, HiTrap Q, Superdex 200); not shown: His6, N-terminal, cleaved
[1]
  stoichiometry N: 6

B2: CgeA A42C/D97C variant (natural protein, B. subtilis, UniProt P42089 1-133, looked up)
chain: MSSENAQLKKDLIKAVLSPLFPTATEGGENMDSNLKALLDACIDQKVDESETVTAESILDPSLPARWIFARITPGTTISIVTDSGDMIGPVVFVAFCQVHGIVFVTQESSVTPAGQATTLIDVDKVESVTFFS
notes: CgeA of B. subtilis with two cysteine mutations, made from pProEx-Hta-CgeA (WT) by QuikChange; residues 62-109 and 115-133 are modelled in the cryo-EM structure; The cysteines were designed to form a disulfide bond, which could not be seen unambiguously in the map; also called CgeA A42C/D97C mutant; CgeA mutant; source: E. coli BL21 (DE3), purified (Ni-NTA, TEV cleavage, HiTrap Q, Superdex 200); …
[2]
  stoichiometry N: 6
